“And” between values parts separate entries of the source, which are not always exact repeats. Identical values can stand only once.
B1: IgG1-024 (antibody, V domains shown)
VH: EVQLLESGGGLVQPGGSLRLSCVASGFTFSSYAMSWVRQAPGKGLEWVSAISGSSGGSTYYVDSVKGRFTISRANSKNTLYLQMNSLRAEDTAVYYCAKDLDRGWMGYFGYWGQGTLVTVSS
VL: DIQMTQSPSSVSASVGDRVTITCRASQGISSWLAWYQHKPGKAPKLLIYAASSLQSGVPSRFSGSGSGTDFTLTISSLQPEDFATYYCQQANSFPTFGQGTRLEIK
notes: also called TH1016-024; PC1016-024
B2: anti-c-Met HuMab 035 (IgG1) (antibody, V domains shown)
VH: EVQLVQSGAEVKKPGESLKISCKGSGYSFTSYWIGWVRQMPGKGLEWMGIIYPGDSDTRYSPSFQGQVTISADKSISTAYLQWNSLKASDTAMYYCARQEITGEFDYWGQGTLVTVSS
VL: AIQLTQSPSSLSASVGDRVTITCRASQGISSALAWYQQKPGKAPKLLIYDASSLESGVPSRFSGSGSGTDFTLTISSLQPEDFATYYCQQFNSYPMYTFGQGTKLEIK
notes: also called P1016-035; TH1016-035-D09
B3: anti-c-Met HuMab 101 (IgG1) (antibody, V domains shown)
VH: QVQLVQSGGEVKKPGASVKVSCKASGYTFTRHGITWVRQAPGQGLEWMGWISADNGNTNYAQKFQDRVTMTTDTSTSTAYMELRSLRSDDTAVYFCARVFRYFDWLLPYFDYWGQGTLVTVST
VL: not shown
B4: anti-c-Met HuMab 045 (IgG1) (antibody, V domains shown)
VH: EVQLLESGGGLVQPGGSLRLSCAASGFTFSSYAMSWVRQAPGKGLEWVSVISGSGGITYYADSVKGRFTISRDNSKNTLYLQMNSLRAEDTAVYYCARDRGWGSDYWGQGTLVTVSS
VL: EIVLTQSPATLSLSPGERATLSCRASQSVSSYLAWYQQKPGQAPRLLIYDASNRATGIPARFSGSGSGTDFTLTISSLEPEDFAVYYCQQRSNWPFTFGPGTKVDIK
notes: also called TH1016-045; PC1016-045
B5: IgG1-1016-069 (antibody, V domains shown)
VH: QVQLVQSGAEVKKPGASVKVSCETSGYTFTSYGISWVRQAPGHGLEWMGWISAYNGYTNYAQKLQGRVTMTTDTSTSTAYMELRSLRSDDTAVYYCARDLRGTNYFDYWGQGTLVTVSS
VL: DIQMTQSPSSVSASVGDRVTITCRASQGISNWLAWFQHKPGKAPKLLIYAASSLLSGVPSRFSGSGSGTDFTLTISSLQPEDFATYYCQQANSFPITFGQGTRLEIK
notes: also called clone 069; TH1016-069
B6: anti-c-Met HuMab 181 (IgG1) (antibody, V domains shown)
VH: QVQLVQSGAEVKKPGASVKVSCKASGYTFTSYGISWVRQAPGQGLEWMGWISTYNGYTNYAQKLQGRVTMTTDTSTSTAYMELRSLRSDDTAVYYCARDLRGTAYFDYWGQGTLVTVSS
VL: DIQMTQSPSSVSASVGDRVTITCRASQGISNWLAWYQHKPGKAPKLLIYAASSLLSGVPSRFSGSGSGTDFTLTISSLQPEDFATYYCQQANSFPITFGQGTRLEIK
notes: also called TH1016-181; PC1016-181
B7: anti-c-Met HuMab 006 (IgG1) (antibody, V domains shown)
VH: QVQLVQSGAEVKKPGSSVKVSCKASGGTFSSFGIGWVRQAPGQGLEWMGRIFPILGTANYAQMFQGRVTITADKSTSTAYMELTSLRSEDTAVYYCARDVGYDSADAFDIWGQGTMVTVSS
VL: DIQMTQSPSSLSASVGDRVTITCRASQGISSWLAWYQQKPEKAPKSLIYAASSLQSGVPSRFSGSGSGTDFTLTISSLQPEDFATYYCQQYNSYPPTFGQGTKVEIK
notes: also called TH1016-006; PC1016-006
B8: anti-c-Met HuMab 098 (IgG1) (antibody, V domains shown)
VH: QVQLVQSGAEVKKPGASVKVSCKASGYTFTNFGISWVRQAPGQGLEWMGWISAFNGHTDYSQKVQGRVTMTTDTSTSTAYMELRSLRSDDTAVFYCARSHYYGSGSPFDYWGQGTLVTVSS
VL: DIQMTQSPSSLSASVGDRVTITCRASQGISNWLAWYQQKPEKAPKSLIYAASSLQSGVPSRFSGSGSGTDFTLTISSLQPEDFATYYCHQYKSYPWTFGQGTKVEIK
notes: also called TH1016-098; PC1016-098

Experiments:
[1] = biological target: T1, human c-Met, membrane-bound on cells (human, UniProt P08581 25-1390); test: flow cytometry on A431 cells (PE goat anti-human IgG); third panel; curve not saturated
T1 construct: whole, on cells; A431 cells carry on average 30,000 copies of c-Met per cell (Qifi); also called c-Met expressed on A431 cells; c-Met on A549 cells
Procedure: (§1) The binding of anti-c-Met antibodies and monovalent forms thereof (also termed “UniBody molecules” herein, see Example 5) to A431 cells expressing membrane-bound c-Met (purchased at ATCC, CRL-1555) was tested using flow cytometry (FACS Canto II, BD Biosciences). […] Binding of anti-c-Met antibodies and UniBody molecules was detected using a Phycoerythrin-conjugated goat-anti-human IgG antibody (Jackson). IgG1-5D5 was used as positive control antibody, and HuMab-KLH was used as isotype control antibody. EC₅₀ values were determined by means of non-linear regression (sigmoidal dose-response with variable slope) using GraphPad Prism V4.03 software (GraphPad Software, San Diego, Calif., USA).
(§2) Also maximum binding levels were unchanged between IgG1's and UniBody molecules. For antibodies 005, 006, 008, 035, 045 and 058, on the other hand, a more than 2-fold […] as well as a decrease in maximum binding level was observed when comparing IgG1 with their UniBody counterpart. This was most likely due to the […] (Kd) of these antibodies (see Example 14).

[2] = biological target: T1, human c-Met, membrane-bound on cells; test: flow cytometry on A431 cells (PE goat anti-human IgG); third panel
Procedure: as §1, §2

[3] = biological target: T2, recombinant human c-Met extracellular domain (R&D systems) (human, UniProt P08581 25-932); test: competition ELISA, residual Europium-HGF signal at 615 nm at the lower plateau of the fit; sheet prints no competing mAb ~66000, no HGF-Europium ~600; lower panel
T2 construct: extracellular domain; Bought reagent; also called coated extracellular domain of c-Met; recombinant c-Met
Procedure: (§3) ELISA wells were coated overnight at 4° C. with 0.5 μg/mL recombinant human c-Met extracellular domain (R&D systems, Minneapolis, USA) diluted in PBS. Next, the ELISA wells were washed with PBST (PBS supplemented with 0.05% Tween-20 [Sigma-Aldrich, Zwijndrecht, The Netherlands]) and blocked for one hour at room temperature (RT) with PBST supplemented with 2% (v/v) chicken serum (Gibco, Paisley, Scotland). […] Mean fluorescence intensity at 615 nm was measured using the EnVision 2101 Multilabel reader (PerkinElmer) applying the following settings: Lance/Delfia dual mirror, emission filter 615, excitation filter 340 nm, delay time 400 μs, window 400 μs, 100 flashes, 2000 μs per cycle and bidirectional row-by-row reading. To determine IC₅₀ values, the binding curves were analyzed with non-linear regression (sigmoidal dose-response with variable slope, top-values constrained to a shared value for all data-sets) using GraphPad Prism V4.03 software (GraphPad Software, San Diego, Calif., USA).
(§4) FIG. 5 depicts representative examples of HGF binding inhibition curves of anti-c-Met antibodies for binding to the extracellular domain of recombinant human c-Met. 5D5 was used as positive control antibody. All anti-c-Met antibodies in the experiment shown were able to compete with Europium^{3±}-conjugated HGF for binding to recombinant c-Met. […] Without adding Europium³⁺-conjugated HGF, roughly ˜600 relative fluorescent units (RFU) were detected, indicating the signal when maximal inhibition is accomplished. When binding of Europium³⁺-conjugated HGF was not inhibited, approximately ˜66,000 RFU were detected.

[4] = biological target: T1, human c-Met, membrane-bound on cells; test: flow cytometry on A431 cells (PE goat anti-human IgG); bottom panel
Procedure: as §1, §2

[5] = biological target: T2, recombinant human c-Met extracellular …; test: competition ELISA on coated recombinant c-Met extracellular domain; blocked ligand Europium-conjugated HGF; column headed EC50 on the sheet, called IC50 in paragraph 270; lower panel
Procedure: as §3, §4

[6] = biological target: T3, rhHGF R/Fc Chimera (R&D Systems; Cat.358MT/CF) (human, UniProt P08581 25-932); test: ELISA on coated rhHGF R/Fc Chimera
T3 construct: Bought reagent; Fc part of the bought chimera not given; not described
Procedure: c-Met binding properties of the mutants were tested in an ELISA. ELISA plate wells were coated overnight at 4° C. with rhHGF R/Fc Chimera (R&D Systems; Cat.358MT/CF) in PBS (1 μg/mL). Next, the wells were washed with PBST (PBS supplemented with 0.05% Tween-20 [Sigma-Aldrich, Zwijndrecht, The Netherlands]) and blocked for one hour at room temperature (RT) with PBSTC (PBST supplemented 2% [v/v] chicken serum [Gibco, Paisley, Scotland]). Subsequently, the wells were washed with PBST and incubated for one hour at RT with the anti-cMet antibodies and variants serially diluted in PBSTC (10 μg/mL in 4-fold dilutions). […] After washing, the reaction was visualized by a 15 min incubation with 2,2′-azino-bis(3-ethylbenzothiazoline-6-sulfonic acid) (ABTS: dilute one ABTS tablet in 50 mL ABTS buffer [Roche Diagnostics, Almere, The Netherlands]) at RT protected from light. The colorization was stopped by adding an equal volume of oxalic acid (Sigma-Aldrich, Zwijndrecht, The Netherlands). […] at 405 nm was measured on a microtiter plate reader (Biotek Instruments, Winooski, USA).

[7] = biological target: T1, human c-Met, membrane-bound on cells; test: flow cytometry on A431 cells (PE goat anti-human IgG); top panel
Procedure: as §1, §2

| Bottom [3] | EC50 [4] | IC50 [5] | further results | Binder |
| --- | --- | --- | --- | --- |
|  |  |  | EC50 [1]: ~3190 pM | B1 |
|  |  |  | EC50 [2]: 1780 pM | B2 |
| 8380 RFU | 1040 pM | 0.0558 µg/mL |  | B3 |
|  |  |  | EC50 [2]: 692 pM | B4 |
| 15000 RFU | 547 pM | 0.0267 µg/mL | EC50 [6]: 0.0495 µg/mL and 0.0454 µg/mL | B5 |
| 16300 RFU | 679 pM | 0.0103 µg/mL |  | B6 |
|  |  |  | EC50 [7]: 2320 pM | B7 |
| 12700 RFU | 900 pM | 0.0135 µg/mL |  | B8 |

— US20150329642A1 (Genmab, published 2015)
